Measurements taken from patent US8258256 (Johns Hopkins, dated 2012).
Ends that are not written are not given here. * marks the point of attachment. Biotin = O=C1N[C@H]2[C@H](CS[C@H]2CCCCC(=O)*)N1

target: T1, His-PSMA (recombinant extracellular domain of prostate specific membrane antigen with amino-terminal His-6 … (UniProt Q04609 44-750, limits assumed)); experiment: cell-based or functional assay
T1 sequence (Q04609 other isoform, or with tags, fused parts or gaps limits assumed): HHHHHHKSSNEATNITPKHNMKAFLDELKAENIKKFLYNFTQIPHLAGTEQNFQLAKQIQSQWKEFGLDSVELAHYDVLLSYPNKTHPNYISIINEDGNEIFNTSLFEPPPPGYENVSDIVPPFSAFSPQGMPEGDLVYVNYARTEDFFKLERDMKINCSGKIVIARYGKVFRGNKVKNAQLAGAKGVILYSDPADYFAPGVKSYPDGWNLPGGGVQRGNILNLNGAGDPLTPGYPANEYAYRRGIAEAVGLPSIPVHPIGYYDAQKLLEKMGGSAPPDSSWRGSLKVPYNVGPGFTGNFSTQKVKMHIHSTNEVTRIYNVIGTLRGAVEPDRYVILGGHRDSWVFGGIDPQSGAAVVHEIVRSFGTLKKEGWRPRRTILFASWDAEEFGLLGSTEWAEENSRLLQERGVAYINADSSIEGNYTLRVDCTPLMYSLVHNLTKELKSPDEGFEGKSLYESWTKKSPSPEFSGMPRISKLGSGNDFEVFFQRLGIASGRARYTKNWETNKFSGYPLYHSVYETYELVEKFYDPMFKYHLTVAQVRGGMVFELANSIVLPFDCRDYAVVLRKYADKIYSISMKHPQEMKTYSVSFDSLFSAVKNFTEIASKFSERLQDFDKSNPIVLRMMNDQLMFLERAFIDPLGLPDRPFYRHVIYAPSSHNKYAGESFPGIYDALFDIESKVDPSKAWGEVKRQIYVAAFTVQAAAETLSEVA

Row | Binder | inhibition of NAAG hydrolysis (NAALADase activity of PSMA), IC50 [µM] | fold better inhibition of PSMA than the monomer [fold]
1 | WQPDTAHHWATL [monomeric WQPDTAHHWATL (SEQ ID NO:1) peptide (as used in the NAALADase assay)] | 23 | –
2 | dimeric WQPDTAHHWATL (SEQ ID NO:1) peptide (as used in the NAALADase assay) (not fully specified (C-terminus); printed as (WQPDTAHHWATL)2-K; also: two copies of chain 1, C-termini joined to alpha and epsilon amines of branching Lys, C-terminal label on Lys not given here) peptide: WQPDTAHHWATL Lys | 2.2 | ~10

target: T1, His-PSMA (recombinant extracellular …); experiment: ELISA, biotinylated peptide on immobilized PSMA or BSA
Source text: (§1) Recombinant PSMA (0.625 µgs) and BSA (25 µgs/ml) were immobilized and indicated concentrations of the biotinylated […] […] Results are the mean binding in 4 replicate wells each ±S.D.

Row | Binder | binding result
3 | QMARIPKRLARHK(Biotin) (also called control consisting of a positively charged 12 amino acid peptide) [non-selected control peptide QMARIPKRLARHK-biotin] | no binding

target: T1, His-PSMA (recombinant extracellular …); experiment: ELISA, biotinylated peptide on immobilized PSMA against immobilized BSA
Source text: as §1

Row | Binder | binding result
4 | WQPDTAHHWATLK(Biotin)-OH (N-terminus assumed; SMILES CC(C)C[C@H](NC(=O)[C@@H](NC(=O)[C@H](C)NC(=O)[C@H](Cc1c[nH]c2ccccc12)NC(=O)[C@H](Cc1c[nH]cn1)NC(=O)[C@H](Cc1c[nH]cn1)NC(=O)[C@H](C)NC(=O)[C@@H](NC(=O)[C@H](CC(=O)O)NC(=O)[C@@H]1CCCN1C(=O)[C@H](CCC(N)=O)NC(=O)[C@@H](N)Cc1c[nH]c2ccccc12)[C@@H](C)O)[C@@H](C)O)C(=O)N[C@@H](CCCCNC(=O)CCCC[C@@H]1SC[C@@H]2NC(=O)N[C@@H]21)C(=O)O, Synthetic, Fmoc chemistry; also called biotinylated monomeric peptide) [WQPDTAHHWATLK (Biotin) monomeric peptide] | binds

target: T1, His-PSMA (recombinant extracellular …); experiment: phage ELISA on immobilized His-PSMA against immobilized BSA, phage at 10^10 pfu/ml, anti-M13-HRP

Row | Binder | fold higher binding to PSMA compared to BSA [fold]
5 | WQPDTAHHWATL (not fully specified, Whole M13 phage particle displaying the 12-mer; tested as phage, in pfu/ml; not shown: M13 phage coat protein III) [WQPDTAHHWATL (SEQ ID NO:1) phage] | ~10

target: T1, His-PSMA (recombinant extracellular …); experiment: phage display selection in solution on His-PSMA, three rounds, capture with anti-His magnetic beads
Protocol: Phage Library Screening—Peptides from the random M13 12-mer phage library were selected using His-tagged PSMA as the target, which was then captured using magnetically labeled Anti-His Tag Antibody. To remove non-specific phage binding to Anti-His antibody and other components of the magnetic separation system, the library was depleted 2 times with the His-MACS system. First Round of Screening: The final eluate from negative screening was incubated with 0.8 μgs of PSMA for 30 mins at room temperature. 50 uls of His-MACS were added and allowed to bind for 30 mins at room temperature. The incubation mixture was loaded onto a MACS column and washed twice with 1 ml of PBS/0.1% Tween 20 (PBST). Beads containing PSMA bound to phage were collected and amplified using PhD Kit protocol (NEB, Auburn, Mass.). Second Round Screening: Negative screening was repeated as above except with more BSA (0.5%) and longer incubation (1 hr at 4° C.). 10^10 pfu from the first round of screen were then incubated with PSMA in 1% BSA for 6 hrs at 4° C. His-MACS in 3% BSA were incubated for 30 mins and bound phages were collected and amplified as in round one. For third round screening the same method was used except Mouse IgG solution (100 μgs/ml) was added to the blocking solution. Individual phage were selected and sequenced after third round of screening.
To decrease the selection of non-specific low affinity binders, phage screening was performed in solution and incorporated negative screening steps using other selection components (i.e. antibodies, magnetic beads, etc.) to remove many background binders (22). Thus, for this study the phage library was incubated with magnetically labeled Anti-His_6 (SEQ ID NO: 25) antibody […]. After negative selection steps, His-PSMA was incubated with the phage library and phages bound to His-PSMA were captured using magnetically labeled Anti-His_6 (SEQ ID NO: 25) antibody, FIG. 1.

Row | Binder | binding result
6 | SEFIHHWTPPPS (not fully specified; also: displayed on M13 phage pIII, Selected in three rounds on His-PSMA; not tested singly; not shown: M13 phage coat protein III) [selected phage with insert SEQ ID NO 9] | binds
7 | NGFSHHAPLMRY (not fully specified, Selected in three rounds on His-PSMA; not tested singly; not shown: M13 phage coat protein III) [selected phage with insert SEQ ID NO 10] | binds
8 | HHEWTHHWPPPP (not fully specified; also: displayed on M13 phage pIII, Selected in three rounds on His-PSMA; not tested singly; not shown: M13 phage coat protein III) [selected phage with insert SEQ ID NO 32] | binds
9 | AWPENPSRRPFT (not fully specified; also: displayed on M13 phage pIII, Selected in three rounds on His-PSMA; not tested singly; not shown: M13 phage coat protein III) [selected phage with insert SEQ ID NO 33] | binds
10 | AGFQHHPSFYRF (not fully specified, Selected in three rounds on His-PSMA; not tested singly; not shown: M13 phage coat protein III) [selected phage with insert SEQ ID NO 13] | binds
11 | KSLSRHDHIHHH (not fully specified, Selected in three rounds on His-PSMA; not tested singly; not shown: M13 phage coat protein III) [selected phage with insert SEQ ID NO 14] | binds
12 | YRHWPIDYPPPP (not fully specified; also: displayed on M13 phage pIII, Selected in three rounds on His-PSMA; not tested singly; not shown: M13 phage coat protein III) [selected phage with insert SEQ ID NO 34] | binds
13 | MIHTNHWWAQDR (not fully specified; also: displayed on M13 phage pIII, Selected in three rounds on His-PSMA; not tested singly; not shown: M13 phage coat protein III) [selected phage with insert SEQ ID NO 35] | binds
14 | QRSPMMSRIRLP (not fully specified, Selected in three rounds on His-PSMA; not tested singly; not shown: M13 phage coat protein III) [selected phage with insert SEQ ID NO 17] | binds
15 | TPLPSFTDGHHT (not fully specified; also: displayed on M13 phage pIII, Selected in three rounds on His-PSMA; not tested singly; not shown: M13 phage coat protein III) [selected phage with insert SEQ ID NO 36] | binds
16 | HNAYWHWPPSMT (not fully specified, Selected in three rounds on His-PSMA; not tested singly; not shown: M13 phage coat protein III) [selected phage with insert HNAYWHWPPSMT (SEQ ID NO 2)] | binds
17 | GHLIPLRQPSHQ (not fully specified, Selected in three rounds on His-PSMA; not tested singly; not shown: M13 phage coat protein III) [selected phage with insert SEQ ID NO 29] | binds
18 | YTSPHHSTTGHL (not fully specified; also: displayed on M13 phage pIII, Selected in three rounds on His-PSMA; not tested singly; not shown: M13 phage coat protein III) [selected phage with insert SEQ ID NO 4] | binds
19 | WTHHHSYPRPLQ (not fully specified, Selected in three rounds on His-PSMA; not tested singly; not shown: M13 phage coat protein III) [selected phage with insert SEQ ID NO 30] | binds
20 | NSFPLMLMHHHP (not fully specified; also: displayed on M13 phage pIII, Selected in three rounds on His-PSMA; not tested singly; not shown: M13 phage coat protein III) [selected phage with insert SEQ ID NO 6] | binds
21 | KHMHWHPPALNT (not fully specified, Selected in three rounds on His-PSMA; not tested singly; not shown: M13 phage coat protein III) [selected phage with insert SEQ ID NO 31] | binds
22 | SLDSMSPQWHAD (not fully specified; also: displayed on M13 phage pIII, Selected in three rounds on His-PSMA; not tested singly; not shown: M13 phage coat protein III) [selected phage with insert SEQ ID NO 8] | binds
